From the Immune Epitope Database (IEDB)

What was measured:
HLA-A*01:01 = assay: IEDB peptide-MHC binding, purified MHC/direct/fluorescence; filed as Kd, often an IC50 or EC50 that approximates it; ≥ and ≤ were set here for values at or beyond the usual limits of such assays; settings: source organism: Marburg virus - Musoke, Kenya, 1980
HLA-A*03:01 = assay: as above; settings: source organism: Marburg virus - Musoke, Kenya, 1980
HLA-A*11:01 = assay: as above; settings: source organism: Marburg virus - Musoke, Kenya, 1980
HLA-A*31:01 = assay: as above; settings: source organism: Marburg virus - Musoke, Kenya, 1980
HLA-B*07:02 = assay: as above; settings: source organism: Marburg virus - Musoke, Kenya, 1980
HLA-B*08:02 = assay: as above; settings: source organism: Ravn virus - Ravn, Kenya, 1987
HLA-B*15:01 = assay: as above; settings: source organism: Marburg virus - Musoke, Kenya, 1980
HLA-B*18:01 = assay: as above; settings: source organism: Marburg virus - Musoke, Kenya, 1980
HLA-B*27:05 = assay: as above; settings: source organism: Marburg virus - Musoke, Kenya, 1980
HLA-B*40:01 = assay: as above; settings: source organism: Marburg virus - Musoke, Kenya, 1980
HLA-B*46:01 = assay: as above; settings: source organism: Marburg virus - Musoke, Kenya, 1980
HLA-B*48:01 = assay: as above; settings: source organism: Marburg virus - Musoke, Kenya, 1980
HLA-B*57:01 = assay: as above; settings: source organism: Marburg virus - Musoke, Kenya, 1980
HLA-B*58:01 = assay: as above; settings: source organism: Marburg virus - Musoke, Kenya, 1980
HLA-A*02:01 = assay: IEDB peptide-MHC binding, purified MHC/competitive/fluorescence; filed as Kd, often an IC50 or EC50 that approximates it; ≥ and ≤ were set here for values at or beyond the usual limits of such assays; settings: source organism: Orthomarburgvirus marburgense
HLA-A*02:06 = assay: as above; settings: source organism: Orthomarburgvirus marburgense
HLA-A*26:02 = assay: as above; settings: source organism: Orthomarburgvirus marburgense
HLA-A*26:03 = assay: as above; settings: source organism: Orthomarburgvirus marburgense
HLA-A*68:02 = assay: as above; settings: source organism: Orthomarburgvirus marburgense
HLA-A*69:01 = assay: as above; settings: source organism: Orthomarburgvirus marburgense
HLA-B*15:17 = assay: as above; settings: source organism: Orthomarburgvirus marburgense
HLA-B*35:01 = assay: as above; settings: source organism: Orthomarburgvirus marburgense

For TVLEFILQK, the Kd (HLA-A*01:01) was no less than 20 µM, the Kd (HLA-A*03:01) was 0.141 µM and the Kd (HLA-A*11:01) was 0.0023 µM. The Kd (HLA-A*31:01) was 0.119 µM, the Kd (HLA-B*07:02) was no less than 20 µM and the Kd (HLA-B*08:02) was no less than 20 µM. The Kd (HLA-B*15:01) was no less than 20 µM, the Kd (HLA-B*18:01) was no less than 20 µM and the Kd (HLA-B*27:05) was no less than 20 µM. It also gave a Kd (HLA-B*40:01) of no less than 20 µM, a Kd (HLA-B*46:01) of no less than 20 µM and a Kd (HLA-B*48:01) of no less than 20 µM. It also gave a Kd (HLA-B*57:01) of no less than 20 µM, a Kd (HLA-B*58:01) of no less than 20 µM and a Kd (HLA-A*02:01) of 1.17 µM. The Kd (HLA-A*02:06) was 0.776 µM, the Kd (HLA-A*26:02) was no less than 20 µM and the Kd (HLA-A*26:03) was no less than 20 µM. It also gave a Kd (HLA-A*68:02) of 3.88 µM, a Kd (HLA-A*69:01) of 0.827 µM and a Kd (HLA-B*15:17) of no less than 20 µM. It also gave a Kd (HLA-B*35:01) of no less than 20 µM.
